Source: CN113336845A (LANZHOU VETERINARY RES INST CAAS, dated 2021)

Biological target: T1, 融合蛋白3AN (FMDV 3A epitope fused to PRRSV N protein)
T1 construct: also called 3AN融合蛋白; 3AN蛋白抗原
Assay: ELISA, biotin-labelled C8 detects 3AN captured by 3A24

B1: 猪繁殖与呼吸综合征病毒核衣壳蛋白的猪源单个B细胞抗体C8 (antibody, V domains shown)
VH: GLVQPGGSLRLSCVASGFTFSSYIVTWVRQSPGKGLEWLAGTGVGEYALYYRNSVRGRFTLSRDNSQNTAYLQMNSLRVEETGRYFCRRGAAESVDLWGPGVEVVVSS
VL: QEPAMSVSLGGTVTLTCAFSSGSVTRSHWPSWFQLTPGQPPRTLIVSTDSRPTGVPSRFSGAISGYKAALTITGAQPEDEADYVCGVYFTFTKRPFGGGTHLTVLG
notes: also called C8单抗; 单克隆抗体C8
binding result: binds
